Measurements published in publication PMC5454378, “Histone deacetylase 10 structure and molecular function as a polyamine deacetylase” (Nature Communications, 2017).

B1: hHDAC6 CD12 (Homo sapiens) (protein)
chain: MTSTGQDSTTTRQRRSRQNPQSPPQDSSVTSKRNIKKGAVPRSIPNLAEVKKKGKMKKLGQAMEEDLIVGLQGMDLNLEAEALAGTGLVLDEQLNEFHCLWDDSFPEGPERLHAIKEQLIQEGLLDRCVSFQARFAEKEELMLVHSLEYIDLMETTQYMNEGELRVLADTYDSVYLHPNSYSCACLASGSVLRLVDAVLGAEIRNGMAIIRPPGHHAQHSLMDGYCMFNHVAVAARYAQQKHRIRRVLIVDWDVHHGQGTQFTFDQDPSVLYFSIHRYEQGRFWPHLKASNWSTTGFGQGQGYTINVPWNQVGMRDADYIAAFLHVLLPVALEFQPQLVLVAAGFDALQGDPKGEMAATPAGFAQLTHLLMGLAGGKLILSLEGGYNLRALAEGVSASLHTLLGDPCPMLESPGAPCRSAQASVSCALEALEPFWEVLVRSTETVERDNMEEDNVEESEEEGPWEPPVLPILTWPVLQSRTGLVYDQNMMNHCNLWDSHHPEVPQRILRIMCRLEELGLAGRCLTLTPRPATEAELLTCHSAEYVGHLRATEKMKTRELHRESSNFDSIYICPSTFACAQLATGAACRLVEAVLSGEVLNGAAVVRPPGHHAEQDAACGFCFFNSVAVAARHAQTISGHALRILIVDWDVHHGNGTQHMFEDDPSVLYVSLHRYDHGTFFPMGDEGASSQIGRAAGTGFTVNVAWNGPRMGDADYLAAWHRLVLPIAYEFNPELVLVSAGFDAARGDPLGGCQVSPEGYAHLTHLLMGLASGRIILILEGGYNLTSISESMAACTRSLLGDPPPLLTLPRPPLSGALASITETIQVHRRYWRSLRVMKVEDREGPSSSKLVTKKAPQPAKPRLAERMTTREKKVLEAGMGKVTSASFGEESTPGQTNSETAVVALTQDQPSEAATGGATLAQTISEAAIGGAMLGQTTSEEAVGGATPDQTTSEETVGGAILDQTTSEDAVGGATLGQTTSEEAVGGATLAQTTSEAAMEGATLDQTTSEEAPGGTELIQTPLASSTDHQTPPTSPVQGTTPQISPSTLIGSLRTLELGSESQGASESQAPGEENLLGEAAGGQDMADSMLMQGSRGLTDQAIFYAVTPLPWCPHLVAVCPIPAAGLDVTQPCGDCGTIQENWVCLSCYQVYCGRYINGHMLQHHGNSGHPLVLSYIDLSAWCYYCQAYVHHQALLDVKNIAHQNKFGEDMPHPH
notes: both catalytic domains CD1-CD2
B2: zHDAC10Δ (Danio rerio) (protein)
chain: MASGSALIFDEEMSRYKLLWTDPACEIEVPERLTVSYEALRTHGLAQRCKAVPVRQATEQEILLAHSEEYLEAVKQTPGMNVEELMAFSKKYNDVYFHQNIYHCAKLAAGATLQLVDSVMKREVRNGMALVRPPGHHSQRSAANGFCVFNNVAIAALYAKKNYNLNRILIVDWDVHHGQGIQYCFEEDPSVLYFSWHRYEHQSFWPNLPESDYSSVGKGKGSGFNINLPWNKVGMTNSDYLAAFFHVLLPVAYEFDPELVIVSAGFDSAIGDPEGEMCALPEIFAHLTHLLMPLAAGKMCVVLEGGYNLTSLGQSVCQTVHSLLGDPTPRISGLGTACDSALESIQNVRNVQSSYWSSFKHLAQSETNPKRPRLDATNGGPKESSEPASESNPKKTAQDIVWPEPLKRMPASVRTVVVPPPGVELTLPKNCQHSGDISESTAKEVQRIRDKHFHDLTDQNILRSLGNIISVLDRMMRSDEVCNGCVVVSDLSVSVQCALQHALTEPAERVLVVYVGDGELPVKTNDGKVFLVQICTKETEDKCVNRLSLCLREGESLTAGFMQALLGLILPVAYEFNPALVLGIVGETAAKTGLMTVWGHMTCLIQGLARGRTLTLLQGYDKDLLELTVSALSGASISPLGPLRALKPEDVEMMEKQRQRLQERWGLLRCTVSES
notes: proteolytically (trypsin) nicked zHDAC10, heterodimer of PDAC and pseudo-deacetylase domains
B3: acetylpolyamine amidohydrolase (APAH) (Mycoplana ramosa) (protein)
chain: MRVIFSEDHKLRNAKTELYGGELVPPFEAPFRAEWILAAVKEAGFDDVVAPARHGLETVLKVHDAGYLNFLETAWDRWKAAGYKGEAIATSFPVRRTSPRIPTDIEGQIGYYCNAAETAISPGTWEAALSSMASAIDGADLIAAGHKAAFSLCRPPGHHAGIDMFGGYCFINNAAVAAQRLLDKGAKKIAILDVDFHHGNGTQDIFYERGDVFFASLHGDPAEAFPHFLGYAEETGKGAGAGTTANYPMGRGTPYSVWGEALTDSLKRIAAFGAEAIVVSLGVDTFEQDPISFFKLTSPDYITMGRTIAASGVPLLVVMEGGYGVPEIGLNVANVLKGVAG

How the values were obtained:
Experiment in all cases: purified protein, by the assay type
[1] = substrate: CC(=O)NCCCC[C@H](NC(=O)[C@H](C)NC(=O)CNC(C)=O)C(=O)Nc1ccc2c(C)cc(=O)oc2c1; design: fluorogenic AMC-conjugated acetyllysine peptide deacetylation, steady-state kinetics
From the text: To determine steady-state kinetic parameters for the hydrolysis of a variety of acetylpolyamine and acetyllysine substrates, we prepared full-length recombinant HDAC10 from human (H. sapiens, hHDAC10) and zebrafish (D. rerio, zHDAC10). The CDs of these orthologues are highly similar based on 63%/79% sequence identity/similarity; only full-length constructs yielded soluble proteins. We first assayed the lysine deacetylase activity of these constructs against two commercially available aminomethylcoumarin (AMC)-conjugated fluorogenic acetyllysine peptides, GAK(ac)-AMC and RGK(ac)-AMC (molecular structures of all substrates are shown in Supplementary Fig. 2). […] These measurements were consistent with earlier studies reporting that HDAC10 activity was not measurable using fluorogenic peptide substrates. We also tested activity with 11 non-fluorogenic acetyllysine substrates using a […] chromatography–mass spectrometry (LC–MS)-based discontinuous assay[17] to avoid potential steric clashes that might occur with the bulky AMC group. These substrates included K(ac)NL and GAK(ac)NLQ, which mimic the peptide segment containing K73 in the proposed HDAC10 substrate MutS homologue 2 (MSH2)[22]. Again, we observed no or very low catalytic activity (Fig. 2 and Supplementary Table 1). In comparison with its closest relative, the cytosolic isozyme HDAC6 (ref. [17]), HDAC10 was clearly not an efficient lysine deacetylase.

[2] = substrate: CC(=O)NCCCCCN; design: steady-state kinetics of acetylpolyamine deacetylation, discontinuous LC-MS after dansyl chloride derivatization; settings: 50.0 °C
Method: (§1) To study steady-state kinetics with non-fluorogenic peptide substrates and acetylpolyamines, a discontinuous LC–MS was employed based on the protocol of assaying nonfluorogenic acetyllysine peptide substrates for HDAC6 (ref. [17]). Assays were performed in triplicate. Briefly, 5 μl of enzyme (0.050–20 μM) in HEPES buffer (20 mM HEPES (pH 7.5), 100 mM NaCl, 5 mM KCl, 1 mM MgCl2) was added to 35 μl of substrate solution to initiate the reaction. After incubation for 15–60 min at room temperature, the reaction was quenched by addition of 50 μl of 20 mM dansyl chloride dissolved in acetonitrile followed by 10 μl of NaHCO3 (1.6 M, pH 10.0). The deacetylation products were derivatized with dansyl chloride at 50 °C for 2 hrs. The deacetylation products were detected by LC–MS using a Waters SQD equipped with an Acquity UPLC (Waters, Milford, MA, USA) and quantified by using the standard curves generated from the mass signals of the corresponding deacetylated polyamines and peptides. Inhibition of HDAC10 activity was measured by using 0.49 μM zHDAC10 with 192 μM N^8-acetylspermidine. Data were analysed by logistic regression for IC50 determination and the inhibition constant Ki was calculated based on the Cheng-Prusoff equation, Ki=IC50 / (1+[S]/KM)[45]. Assays were performed in triplicate at room temperature. We next tested the PDAC activity of hHDAC10 and zHDAC10 against several polyamine substrates using the LC–MS assay (Fig. 2, Supplementary Fig. 3 and Supplementary Table 1). […] For hHDAC10 and zHDAC10, kcat/KM=2,900±200 and 4,600±300 M^−1 s^−1, respectively; in comparison, N^1-acetylspermidine was a poor substrate with kcat/KM=24±5 and 7±2 M^−1 s^−1, respectively. Substrate specificity trends observed for zHDAC10 and hHDAC10 matched those of the previously reported mammalian N^8-acetylspermidine deacetylase activity. […] As a negative control, we examined the N^8-acetylspermidine deacetylase activity of human and zebrafish HDAC6 (ref. [17]). HDAC6 preferentially catalyses the deacetylation of the peptide substrate RGK(ac)-AMC with a catalytic efficiency >100-fold greater than that for the deacetylation of N^8-acetylspermidine. Therefore, HDAC6 is clearly an acetyllysine deacetylase and HDAC10 is an N^8-acetylspermidine deacetylase. It is notable that the molecular function of HDAC10 coincides with the cellular function of the cytosolic PDAC indicated in Fig. 1a.

[3] = substrate: CC(=O)NCCCCN; design: steady-state kinetics of acetylpolyamine deacetylation, discontinuous LC-MS after dansyl chloride derivatization; settings: 50.0 °C
Method: as §1

[4] = substrate: CC(=O)NCCCCNCCCN; design: steady-state kinetics of acetylpolyamine deacetylation, discontinuous LC-MS after dansyl chloride derivatization; settings: 50.0 °C
Method: as §1

[5] = substrate: CC(=O)NCCCCCCCCN; design: steady-state kinetics of acetylpolyamine deacetylation, discontinuous LC-MS after dansyl chloride derivatization; settings: 50.0 °C
Method: as §1

[6] = substrate: CC(=O)NCCCN; design: steady-state kinetics of acetylpolyamine deacetylation, discontinuous LC-MS after dansyl chloride derivatization; settings: 50.0 °C
Method: as §1

[7] = substrate: CC(=O)NCCCNCCCCN; design: steady-state kinetics of acetylpolyamine deacetylation, discontinuous LC-MS after dansyl chloride derivatization; settings: 50.0 °C
Method: as §1

[8] = substrate: CC(=O)NCCCNCCCCNCCCN; design: steady-state kinetics of acetylpolyamine deacetylation, discontinuous LC-MS after dansyl chloride derivatization; settings: 50.0 °C
Method: as §1

[9] = substrate: CC(=O)NCCCC[C@H](NC(C)=O)C(N)=O; design: discontinuous LC-MS deacetylation assay, dansylated product quantified, steady-state kinetics; settings: 50.0 °C
Method: To study steady-state kinetics with non-fluorogenic peptide substrates and acetylpolyamines, a discontinuous LC–MS was employed based on the protocol of assaying nonfluorogenic acetyllysine peptide substrates for HDAC6 (ref. [17]). Assays were performed in triplicate. Briefly, 5 μl of enzyme (0.050–20 μM) in HEPES buffer (20 mM HEPES (pH 7.5), 100 mM NaCl, 5 mM KCl, 1 mM MgCl2) was added to 35 μl of substrate solution to initiate the reaction. After incubation for 15–60 min at room temperature, the reaction was quenched by addition of 50 μl of 20 mM dansyl chloride dissolved in acetonitrile followed by 10 μl of NaHCO3 (1.6 M, pH 10.0). The deacetylation products were derivatized with dansyl chloride at 50 °C for 2 hrs. The deacetylation products were detected by LC–MS using a Waters SQD equipped with an Acquity UPLC (Waters, Milford, MA, USA) and quantified by using the standard curves generated from the mass signals of the corresponding deacetylated polyamines and peptides. Inhibition of HDAC10 activity was measured by using 0.49 μM zHDAC10 with 192 μM N^8-acetylspermidine. Data were analysed by logistic regression for IC50 determination and the inhibition constant Ki was calculated based on the Cheng-Prusoff equation, Ki=IC50 / (1+[S]/KM)[45]. Assays were performed in triplicate at room temperature.

Protein | Km [1] [µM] | kcat [1] [s⁻¹] | kcat/Km [1] [M⁻¹ s⁻¹] | Km [2] [µM] | kcat [2] [s⁻¹] | kcat/Km [2] [M⁻¹ s⁻¹] | Km [4] [µM] | kcat [4] [s⁻¹] | kcat/Km [4] [M⁻¹ s⁻¹] | also measured
B1 | 14 ± 2 | 0.039 ± 0.007 | 2800 ± 400 | – | – | – | – | – | – | –
B2 | 40 ± 20 | – | – | 60 ± 10 | 0.036 ± 0.002 | 600 ± 80 | 70 ± 30 | 0.06 ± 0.007 | 800 ± 100 | Km [3]: 80 ± 30 µM; kcat [3]: 0.081 ± 0.009 s⁻¹; kcat/Km [3]: 980 ± 90 M⁻¹ s⁻¹
B3 | 120 ± 20 | 0.0067 ± 0.0005 | 50 ± 5 | 22 ± 4 | 1.5 ± 0.1 | 68000 ± 7000 | 80 ± 20 | 2.5 ± 0.3 | 30000 ± 5000 | Km [5]: 110 ± 20 µM; kcat [5]: 1.1 ± 0.1 s⁻¹; kcat/Km [5]: 10000 ± 1000 M⁻¹ s⁻¹; Km [6]: 180 ± 60 µM; kcat [6]: 1.3 ± 0.2 s⁻¹; kcat/Km [6]: 7000 ± 1000 M⁻¹ s⁻¹; Km [7]: 70 ± 20 µM; kcat [7]: 0.6 ± 0.05 s⁻¹; kcat/Km [7]: 7400 ± 600 M⁻¹ s⁻¹; Km [8]: 60 ± 10 µM; kcat [8]: 0.2 ± 0.01 s⁻¹; kcat/Km [8]: 2500 ± 900 M⁻¹ s⁻¹; Km [9]: 220 ± 70 µM; kcat [9]: 0.13 ± 0.02 s⁻¹; kcat/Km [9]: 600 ± 100 M⁻¹ s⁻¹
